From PMC9207296, “Photoacoustic imaging reveals mechanisms of rapid-acting insulin formulations dynamics at the injection site” (Molecular Metabolism, 2022)

How the values were obtained:
[1] = Photobleaching test of dye-labeled lispro in expired mouse ear (OR-PAM); type: physicochemical; conditions: 400 μM in Humalog formulation in expired mouse ear; 21 imaging sessions over 3 hours; 780 nm
Procedure: Before performing live animal experiments, we injected the dye-labeled lispro formulation in the ear of an expired mouse to study the progression of photoacoustic signals to assess photobleaching.
[picture] Figure S1: Photobleaching test of Cy7.5 dye-labeled lispro (400 μM) in Humalog formulation injected in a dead mouse ear. Over the course of 3 hours, 21 imaging sessions were performed and no decrease of photoacoustic signals were found. Scale bar = 500 μm.

[2] = OR-PAM quantification and compartmental kinetic modelling of injection-site absorption in mouse ear; type: in vivo; conditions: sulfo-cy7.5 dye without lispro, n = 3, result in words
Procedure: We used 34 gauge needles (207434, Hamilton) with microliter syringes to inject insulin volumes from 0.06 μL to 0.10 μL in the mouse ear. To perform the injection, the syringes were fitted onto a syringe dispenser (PB600, Hamilton), which enabled rapid and controlled injection. The needle was inserted in the mouse ear at an oblique angle (≤45°) and then the desired volume of the dye-labeled insulin lispro formulation was injected using the syringe dispenser. To perform 0.06 μL injections, a 1 μL syringe (80100, Hamilton) was used through which a minimum of 0.02 μL of liquid could be dispensed. To inject 0.1 μL volume, a 5 μL (7634-01, Hamilton) syringe was used. To perform 0.06 μL injection, the 1 μL syringe was fitted with a glass coupler (55752-01, Hamilton) and a luer adaptor (55753-01, Hamilton) to connect to the 34-gauge needle. The 5 μL syringe could be directly connected to the needle.
Mouse experiments were approved as per the IACUC regulations at Caltech. Hsd:Athymic Nude-Fox1^nu mice aged 6–10 weeks (Envigo) were used in all the photoacoustic experiments. The mouse body temperature was maintained at 37 °C during imaging. […]
Since the time required for taking each image is around 220 s, we consider the mid-point of time at which the imaging was started and ended as the imaging time-point. […] All the p values were calculated using unpaired two-sample t-tests. […]

Substance	photostability (photoacoustic signal) [1]	injection-site absorption of dye alone, Lyumjev versus Humalog excipient formulation [2]
sulfo-cy7.5 insulin lispro: insulin lispro acylated at the B-chain lysine B28 epsilon amino group with sulfo-cyanine7.5 NHS ester	no decrease in photoacoustic signals after 21 imaging sessions	
sulfo-cyanine7.5 [sulfo-cy7.5 dye]		absorbed at a faster rate in the Lyumjev formulation
